Reference: paper PMC4254511

Molecular target: ICP8 (Infected Cell Polypeptide 8, HSV-1 SSB) (herpes simplex virus-1, UniProt P04296 1-1196)
Experiment: thermal shift assay

Chain of ICP8 (Infected Cell Polypeptide 8, HSV-1 SSB) (P04296 whole entry): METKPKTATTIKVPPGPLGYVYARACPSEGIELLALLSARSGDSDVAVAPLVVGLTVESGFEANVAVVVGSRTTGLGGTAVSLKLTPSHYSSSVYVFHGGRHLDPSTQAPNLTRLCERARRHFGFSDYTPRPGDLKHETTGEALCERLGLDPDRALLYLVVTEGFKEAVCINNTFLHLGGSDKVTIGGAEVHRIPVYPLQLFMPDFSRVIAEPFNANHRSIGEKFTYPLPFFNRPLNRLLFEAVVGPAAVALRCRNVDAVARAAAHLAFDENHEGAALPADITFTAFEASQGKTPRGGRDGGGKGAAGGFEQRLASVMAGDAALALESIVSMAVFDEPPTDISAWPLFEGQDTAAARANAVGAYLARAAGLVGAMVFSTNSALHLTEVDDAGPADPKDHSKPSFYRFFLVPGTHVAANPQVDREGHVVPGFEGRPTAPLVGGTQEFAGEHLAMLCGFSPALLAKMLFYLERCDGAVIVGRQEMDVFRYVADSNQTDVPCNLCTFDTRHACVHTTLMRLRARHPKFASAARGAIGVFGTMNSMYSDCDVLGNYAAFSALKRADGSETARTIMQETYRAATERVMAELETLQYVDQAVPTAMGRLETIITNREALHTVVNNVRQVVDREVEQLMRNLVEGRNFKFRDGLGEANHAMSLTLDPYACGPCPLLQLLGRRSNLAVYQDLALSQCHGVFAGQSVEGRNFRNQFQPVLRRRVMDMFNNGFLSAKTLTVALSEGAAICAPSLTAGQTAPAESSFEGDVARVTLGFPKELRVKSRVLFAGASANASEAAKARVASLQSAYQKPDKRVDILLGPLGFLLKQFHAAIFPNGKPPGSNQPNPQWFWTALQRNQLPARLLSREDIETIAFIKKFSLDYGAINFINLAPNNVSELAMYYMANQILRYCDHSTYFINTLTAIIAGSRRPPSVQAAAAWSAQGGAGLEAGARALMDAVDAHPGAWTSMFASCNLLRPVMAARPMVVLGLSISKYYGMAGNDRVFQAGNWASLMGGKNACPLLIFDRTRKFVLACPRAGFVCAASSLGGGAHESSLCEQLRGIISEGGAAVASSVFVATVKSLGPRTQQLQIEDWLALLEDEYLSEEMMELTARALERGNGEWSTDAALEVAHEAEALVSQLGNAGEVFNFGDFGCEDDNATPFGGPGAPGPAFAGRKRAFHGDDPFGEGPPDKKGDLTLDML

TTTTTTTTTTTTTTTTTTTT (ssDNA) [(dT)20]
Kd: < 1000 nM
